# Source: US20050123977A1, “Assay and treatment” (Ludwig Institute for Cancer Research, priority 2003, published 2005)
# B1: iASPP: human iASPP protein (SEQ ID NO: 4), expressed from plasmid; inhibits apoptotic function of p53 (protein, listed as Homo sapiens)
# chain: MWMKDPVARPLSPTRLQPALPPEAQSVPELEEVARVLAEIPRPLKRRGSMEQAPAVALPPTHKKQYQQIISRLFHRHGGPGPGGRSQSCPPSLRDLRPGQGPLLLPHQLPFHRPAPSQSSPPEQPQSMEMRSVLRKAGSPRKARRARLNPLVLLLDAALTGELEVVQQAVKEMNDPSQPNEEGITALHNAICGANYSIVDFLITAGANVNSPDSHGWTPLHCAASCNDTVICMALVQHGAAIFATTLSDGATAFEKCDPYREGYADCATYLADVEQSMGLMNSGAVYALWDYSAEFGDELSFREGESVTVLRRDGPEETDWWWAALHGQEGYVPRNYFGLFPRVKPQRSK
# B2: ASPP1: human ASPP1 protein (SEQ ID NO: 7), V5-tagged, expressed from CMV-driven plasmid; stimulates apoptotic function of p53 (protein, listed as Homo sapiens)
# chain: MMPMILTVFLSNNEQILTEVPITPETTCRDVVEFCKEPGEGSCHLAEVWRGNERPIPFDHMMYEHLQIWGPRREEVKFFLRHEDSPTENSEQGGRQTQEQRTQRNVINVPGDKRTEYGVGNPRVELTLSELQDMAARQQQQIENQQQMLVAKEQRLHFLKQQERRQQQSISENEKLQKLKERVEAQENKLKKIRAMRGQVDYSKIMNGNLSAEIERFSAMFQEKKQEVQTAILRVDQLSQQLEDLKKGKLNGFQSYNGKLTGPAAVELKRLYQELQIRNQLNQEQNSKLQQQKELLNKRNMEVAMMDKRISELRERLYGKKIQLNRVNGTSSPQSPLSTSGRVAAVGPYIQVPSAGSFPVLGDPIKPQSLSIASNAAHGRSKSANDGNWPTLKQNSSSSVKPVQVAGADWKDPSVEGSVKQGTVSSQPVPFSALGPTEKPGIEIGKVPPPIPGVGKQLPPSYGTYPSPTPLGPGSTSSLERRKEGSLPRPSAGLPSRQRPTLLPATGSTPQPGSSQQIQQRISVPPSPTYPPAGPPAFPAGDSKPELPLTVAIRPFLADKGSRPQSPRKGPQTVNSSSIYSMYLQQATPPKNYQPAAHSALNKSVKAVYGKPVLPSGSTSPSPLPFLHGSLSTGTPQPQPPSESTEKEPEQDGPAAPADGSTVESLPRPLSPTKLTPIVHSPLRYQSDADLEALRRKLANAPRPLKKRSSITEPEGPGGPNIQKLLYQRFNTLAGGMEGTPFYQPSPSQDFMGTLADVDNGNTNANGNLEELPPAQPTAPLPAEPAPSSDANDNELPSPEPEELICPQTTHQTAEPAEDNNNNVATVPTTEQIPSPVAEAPSPGEEQVPPAPLPPASHPPATSTNKRTNLKKPNSERTGHGLRVRFNPLALLLDASLEGEFDLVQRIIYEVEDPSKPNDEGITPLHNAVCAGHHHIVKFLLDFGVNVNAADSDGWTPLHCAASCNSVHLCKQLVESGAAIFASTISDIETAADKCEEMEEGYIQCSQFLYGVQEKLGVMNKGVAYALWDYEAQNSDELSFHEGDALTILRRKDESETEWWWARLGDREGYVPKNLLGLYPRIKPRQRTLA
# modifications: V5 tag
# notes: stimulates apoptotic function of p53
# B3: ASPP2: human ASPP2 protein (SEQ ID NO: 8), expressed from CMV-driven plasmid; stimulates apoptotic function of p53 (protein, listed as Homo sapiens)
# chain: MMPMFLTVYLSNNEQHFTEVPVTPETICRDVVDLCKEPGESDCHLAEVWCGSERPVADNERMFDVLQRFGSQRNEVRFFLRHERPPGRDIVSGPRSQDPSLKRNGVKVPGEYRRKENGVNSPRMDLTLAELQEMASRQQQQIEAQQQLLATKEQRLKFLKQQDQRQQQQVAEQEKLKRLKEIAENQEAKLKKVRALKGHVEQKRLSNGKLVEEIEQMNNLFQQKQRELVLAVSKVEELTRQLEMLKNGRIDSHHDNQSAVAELDRLYKELQLRNKLNQEQNAKLQQQRECLNKRNSEVAVMDKRVNELRDRLWKKKAALQQKENLPVSSDGNLPQQAASAPSRVAAVGPYIQSSTMPRMPSRPELLVKPALPDGSLVIQASEGPMKIQTLPNMRSGAASQTKGSKIHPVGPDWSPSNADLFPSQGSASVPQSTGNALDQVDDGEVPLREKEKKVRPFSMFDAVDQSNAPPSFGTLRKNQSSEDILRDAQVANKNVAKVPPPVPTKPKQINLPYFGQTNQPPSDIKPDGSSQQLSTVVPSMGTKPKPAGQQPRVLLSPSIPSVGQDQTLSPGSKQESPPAAAVRPFTPQPSKDTLLPPFRKPQTVAASSIYSMYTQQQAPGKNFQQAVQSALTKTHTRGPHFSSVYGKPVIAAAQNQQQHPENIYSNSQGKPGSPEPETEPVSSVQENHENERIPRPLSPTKLLPFLSNPYRNQSDADLEALRKKLSNAPRPLKKRSSITEPEGPNGPNIQKLLYQRTTIAAMETISVPSYPSKSASVTASSESPVEIQNPYLHVEPEKEVVSLVPESLSPEDVGNASTENSDMPAPSPGLDYEPEGVPDNSPNLQNNPEEPNPEAPHVLDVYLEEYPPYPPPPYPSGEPEGPGEDSVSMRPPEITGQVSLPPGKRTNLRKTGSERIAHGMRVKFNPLALLLDSSLEGEFDLVQRIIYEVDDPSLPNDEGITALHNAVCAGHTEIVKFLVQFGVNVNAADSDGWTPLHCAASCNNVQVCKFLVESGAAVFAMTYSDMQTAADKCEEMEEGYTQCSQFLYGVQEKMGIMNKGVIYALWDYEPQNDDELPMKEGDCMTIIHREDEDEIEWWWARLNDKEGYVPRNLLGLYPRIKPRQRSLA
# Assays:
# p53Pro72 [1] = biological target: T1, p53Pro72 (Homo sapiens, UniProt P04637); experiment: Transactivation assay (luciferase reporter), p53Pro72; type: cell-based; settings: Saos-2 cells; for transcriptional activity of p53Pro72 on Bax promoter: co-transfection
# T1 construct: expressed in transfected cells; host or cells: Saos-2 or H1299 cells
# Protocol: (§1) Saos-2 or H1299 cells (5×10^5) were plated 24 hours prior to transfection in 6 cm dishes. All transactivation assays contained 1 μg of reporter plasmid. 50 ng of p53Pro72 or p53Arg72, 4 μg of ASPP1 or ASPP2, 2 μg of iASPP expression plasmids were used as indicated. In FIG. 4C cells were also co-transfected with 3 μg of pSuper plasmid containing iASPP RNAi as indicated. Cells were lysed in Reporter Lysis Buffer 16-24 hours after transfection and assayed using the Luciferase Assay kit (Promega, Wis., USA). The fold activation of a particular reporter was determined by the activity of the transfected plasmid divided by the activity of vector alone.
# p53Pro72 [2] = biological target: T1, p53Pro72; experiment: Flow cytometry apoptosis assay, p53Pro72; type: cell-based
# Protocol: Cells (10^6) were plated 24-48 hours prior to transfection in 10 cm plates. All cells were transfected with 2 μg of a plasmid expressing CD20 as a transfection marker. Transfection consisted of 1 μg of human p53Pro72 or p53Arg72, 10 μg of ASPP1 or ASPP2, 4 μg of iASPP and 8 μg of pSuper plasmid containing RNAi of iASPP as indicated. 36 hours after the transfection, both attached and floating cells were harvested and analysed as described.
# p53Pro72 and p53Arg72 = settings: RKO cells heterozygous for p53Pro72/p53Arg72
# Protocol: For western blotting, cells were lysed in either NP40 lysis buffer or luciferase reporter lysis buffer. Between 15-100 μg of protein extract was loaded on SDS-PAGE gels. For immunoprecipitation, cells were lysed in NP40 lysis buffer and pre-cleared with protein G beads for 1 hour at 4° C. The protein concentration was determined and then 1-2 mg of the extract was incubated with antibody pre-bound to protein G beads for 4 hours or overnight at 4° C. The beads were washed twice in NP40 lysis buffer and twice in NET buffer. The IP beads were mixed with 5× sample buffer and loaded onto an SDS-PAGE gel. The gels were wet transferred on to Protran nitrocellulose membrane and the resulting blots were first incubated with primary antibody and subsequently with the appropriate secondary HRP conjugated antibody (Dako). The blot was exposed to hyperfilm following the use of ECL substrate solution (Amersham Life Science).
# p53Pro72, p53Arg72, ASPP1, ASPP2 and iASPP were in vitro translated and labelled with ^35S -Methionine using the TNT T7 Quick coupled Transcription/Translation System (Promega). The lysates containing indicated proteins were incubated at 30° C. for 1 hour. The anti-ASPP1, ASPP2 or iASPP antibodies immobilised on protein G agarose beads were added to the binding reactions and incubated on a rotating wheel at 4° C. for 16 hours. The beads were then washed with PBS. The bound proteins were released in SDS gel sample buffer and analysed by 10% SDS-polyacrylamide gel electrophoresis (PAGE). Results were visualised using autoradiography for ^35S -Methionine labelled proteins. For immunoprecipitation using cell lysates, the expression of endogenous ASPP1, ASPP2, iASPP, p53Pro72 and p53Arg72 were detected by western blot using antibodies specific to these proteins derived from different species from that used in IP.
# p53Arg72 = biological target: T2, p53Arg72 (Homo sapiens, UniProt P04637, P72R); experiment: Transactivation assay (luciferase reporter), p53Arg72; type: cell-based; settings: Saos-2 cells, Bax promoter, co-transfection
# T2 construct: expressed in transfected cells; host or cells: Saos-2 or H1299 cells
# Protocol: as §1
Molecule,transactivation function of p53Pro72 (p53Pro72 [1]; promoter not stated in text (FIG. 2C)),apoptotic function of p53Pro72 (p53Pro72 [2]; Saos-2 cells),co-immunoprecipitation of p53Pro72 compared with p53Arg72 (p53Pro72 and p53Arg72),transcriptional activity of p53Pro72 on Bax promoter (p53Pro72 [1]),transactivation function of p53Arg72 (p53Arg72),apoptotic function of p53Pro72 (p53Pro72 [2]; H1299 cells)
B1,selectively inhibited,selectively inhibited,clearly larger,,,
B2,,selectively enhance,to a lesser extent,significantly enhanced,very little effect,enhanced
B3,,selectively enhance,Selective binding,significantly enhanced,very little effect,enhanced
